{"source": "patent US20150368613", "test_system": "Meis1", "data": [{"substance": "MYC-CUL4A", "values": [{"measurement": "steady-state levels (immunoblot)", "result": "the HOX co-factor Meis1 was not subjected to CUL4A-mediated degradation"}]}]}
